According to US20250002583A1 (PERSONGEN BIOTHERAPEUTICS SUZHOU, published 2025):
Substitutions are numbered along the chain they refer to. Blank lines part the entries; values can stand above or below the binder they belong to.

Target: T1, B7-H3 (CD276) Protein, Human, Recombinant (His Tag) (Human, UniProt Q5ZPR3 29-461, limits assumed)
T1 construct: Bought protein; also called CD276-His recombinant protein; CD276 recombinant protein; not shown: His tag
T1 sequence (looked up): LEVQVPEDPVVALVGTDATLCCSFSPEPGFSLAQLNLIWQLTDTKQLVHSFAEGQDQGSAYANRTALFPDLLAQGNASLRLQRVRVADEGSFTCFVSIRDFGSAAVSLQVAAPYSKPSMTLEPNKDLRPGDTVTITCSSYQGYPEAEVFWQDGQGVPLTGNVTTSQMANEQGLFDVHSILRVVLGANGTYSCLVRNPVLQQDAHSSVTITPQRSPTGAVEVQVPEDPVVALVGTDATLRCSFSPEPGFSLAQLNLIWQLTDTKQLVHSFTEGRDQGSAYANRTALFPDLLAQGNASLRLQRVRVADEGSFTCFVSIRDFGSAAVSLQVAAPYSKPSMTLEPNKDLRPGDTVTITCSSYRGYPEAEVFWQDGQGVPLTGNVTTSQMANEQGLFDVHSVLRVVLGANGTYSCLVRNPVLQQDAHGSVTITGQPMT
Test: SPR (BiaCore T200), CD276 recombinant protein amine-coupled on CM5 chip, antibody as analyte

- Kd: 114 nM
- koff: 0.00282 s⁻¹
- kon: 24800 M⁻¹ s⁻¹
B1: CD276T1H1-T1L1 (antibody, V domains shown)
VH: EVQLVESGGGLIQPGGSLRLSCAASGFTFSTYVMSWVRQAPGKGLEWVSSILSGGTSFYADNVKGRFTISRDNSKNTLYLQMNSLRAEDTAVYYCARRYGHDHYYAMDYWGQGTLVTVSS
VL: EIVLTQSPATLSLSPGERATLSCAASSSVSSSYLHWYQQKPGLAPRLLIYSTSNLASGIPDRFSGSGSGTDFTLTISRLEPEDFAVYYCQQYHRSPWTFGGGTKVEIK
notes: Heavy chain variable region cloned into pcDNA3.1-IgG1Fc and light chain variable region into pcDNA3.1-IgKc (IgG1, kappa); also called humanized CD276 antibody (CD276T1H1-T1L1); CD276 humanized antibody

- Kd: 72.8 nM
- koff: 0.00289 s⁻¹
- kon: 39700 M⁻¹ s⁻¹
B2: CD276T2H1-T2L1 (antibody, V domains shown)
VH: B1 VH with L11V, I12V, Q13R, S74A, T77S, V92L, Y94H, L115T
VL: DIQMTQSPSTLSASVGDRVTITCAASSSVSSSYLHWYQQKPGKAPKLLIYSTSNLASGVPSRFSGSGSGTEFTLTISSLQPDDFATYYCQQYHRSPWTFGQGTKLEIK
notes: Heavy chain variable region cloned into pcDNA3.1-IgG1Fc and light chain variable region into pcDNA3.1-IgKc (IgG1, kappa)

- Kd: 70.8 nM
- koff: 0.00258 s⁻¹
- kon: 36400 M⁻¹ s⁻¹
B3: CD276 Chimeric (antibody, V domains shown)
VH: EVTLVESGGGLVKPGGSLKLSCAASGFTFSTYVMSWVRQTPEKRLEWVASILSGGTSFYADNVKGRFTISRENARNILYLQMSSLKSEDTAMYYCVRRYGHDHYYAMDYWGQGTSVTVSS
VL: QIVLTQSPANMSASLGERVTMTCAASSSVSSSYLHWYQQKPGSSPKLWIYSTSNLASGVPGRFNGSGSGTSYSLTISSMEAEDAATYYCHQYHRSPWTFGGGTKLEIK
notes: Murine variable regions cloned into pcDNA3.1-IgG1Fc (heavy) and pcDNA3.1-IgKc (light); also called human-mouse chimeric antibody; human-murine chimeric antibody
